Measurements reported in patent US20250250357A1 (NANJING ZAIMING PHARMACEUTICAL, published 2025).
Positions count from the first letter of the chain named.

B1: S009-F3.45.21 (antibody, human IgG1, kappa, V domains shown)
VH: DVQLQESGPGLVKPSQSLSLTCSVTGDSITSGYYWNWIRQFPGNKLEWMGFIRFDGTNNYNPSLKNRISITRDTSKNQFFLKLNSVTTEDTATYYCAREGSYAPAWFAYWGQGTLVTVSA
VL: QIVLTQSPAIMSASPGEKVTMTCSASSSLSYMYWYQQKPGSSPRLLIYDTSNLASGVPVRFSGSGSGTSYSLTISRMEAEDAATYYCQQWSSYPPTFGGGTKLEIKR
notes: human-murine chimeric antibody, human IgG1/kappa constant regions
B2: S009-F3.23.1 (antibody, human IgG1, kappa, V domains shown)
VH: QVQLQQSGADLVRPGASVTLSCKASGYTFTDYEMHWVKQTPVHGLEWIGAIDPETGDTVYNQNFKGKAILTADKSSSTAYMELRSLTSEDSAVYYCTRYGYDWGWGQGTTLTVSS
VL: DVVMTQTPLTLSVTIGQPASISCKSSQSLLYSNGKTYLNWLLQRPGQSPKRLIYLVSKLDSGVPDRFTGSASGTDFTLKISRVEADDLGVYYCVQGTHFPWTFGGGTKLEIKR
notes: as for B1
B3: S009-F3.51.8 (antibody, human IgG1, kappa, V domains shown)
VH: QVQLQQSGAELVRPGASVTLSCKASGYTFTDYEMHWVKQTPVHGLEWIGGFDPETGGTAHNQKFKGKAILTADKSSSTAYMELRSLTSEDSAVYYCSNYGSIWGDCWGQGTSVTVSS
VL: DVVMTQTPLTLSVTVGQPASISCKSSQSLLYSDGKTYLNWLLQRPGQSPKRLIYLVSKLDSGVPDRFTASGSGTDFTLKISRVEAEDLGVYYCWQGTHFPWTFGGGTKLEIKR
notes: as for B1
B4: S009-F3.74.20 (antibody, human IgG1, kappa, V domains shown)
VH: RVQLQQSGAELVRPGASVTLSCKASGYTFTDSEMHWVKQTPVHGLEWIGAIDPEIDGTAYNQNFRDKAILTADKSSSTAYMELRSLTSEDSAVYYCTTYFGSGYGYFDVWGTGTTVTVSS
VL: DVVMTQTPLSLSVSLGDQASISCRSSQSLVYSNGNTYLHWFLQKPGQSPKLLIYKVSNRFSGVPDRFSGSGSGTDFTLKINRVEAEDLGVYFCSQSTHIPFTFGAGTKLELKR
notes: as for B1
B5: S009-F4-127.10 (antibody, human IgG1, kappa, V domains shown)
VH: EVQLQQSGPVLVKPGASVKMSCKASGYTFTDYYMNWVKQSHGKSPEWIGVINPYNDVISYNQKFKGKATLTVDKSSSTAYMELNSLTSEDSAVYYCANYGSSYYAMDYWGQGTSVTVSS
VL: B4 VL with Y31H, H39Q, F41S, K50N, N81S, S96T, I99V, A105G, L111I, K112R
notes: as for B1
B6: S009-F3.80.22 (antibody, human IgG1, kappa, V domains shown)
VH: QVQLQQSGAELVRPGASVTLSCKASGYTFTDYEIHWVKQTPVHGLEWIGAFDPEIGGSAYNQKFKDRATLTADKSSSTAYMELHSLTAEDSAVYYCTDYYGSSSGYFDVWGTGTTVTVSS
VL: B4 VL with S12P, V30E, Y31H, S32N, Q43H, N81S, I99V, A105S, L111I
notes: as for B1
B7: S009-F3.7.3 (antibody, human IgG1, kappa, V domains shown)
VH: EVNFEESGGGLVQPGGSMKLSCVASGFTFSNYWMNWVRQSPEKGLEWVAQIRLKSDNYATHYAESVKGRFTISRDDFKSSVYLQMNNLRAEDTGIYYCTVGTGGYWGQGTTLTVSS
VL: DIVLTQSPASLAMSLGKRATISCRASESVSIVGTNVIHWFQQKPGQPPKLLIYHASNLETGVPARFSGSGSGTDFTLTIDPVEEDDVAIYHCLQSRKIPWTFGGGTKLEIKR
notes: Human-murine chimeric antibody: murine VH/VL on human IgG1 heavy chain constant region and human kappa constant region
B8: S009-F3.16.1 (antibody, human IgG1, kappa, V domains shown)
VH: B7 VH with N3K, T71S, F77S, T99S
VL: B7 VL with M13L, L15P, V32I, N35D, G72R, H91Y
notes: Human-murine chimeric antibody, human IgG1/kappa constant regions

These binders were tested against T1, human MSLN-FL-his protein (human, UniProt Q13421 296-580) (assay: competitive ELISA; coated 2ug/ml F4-127.10).
T1 construct: made in HEK293E cells, purified on nickel column; also called hMSLN-FL-his; human MSLN full-length protein; not shown: His tag
T1 sequence (Q13421 other isoform, or with tags, fused parts or gaps): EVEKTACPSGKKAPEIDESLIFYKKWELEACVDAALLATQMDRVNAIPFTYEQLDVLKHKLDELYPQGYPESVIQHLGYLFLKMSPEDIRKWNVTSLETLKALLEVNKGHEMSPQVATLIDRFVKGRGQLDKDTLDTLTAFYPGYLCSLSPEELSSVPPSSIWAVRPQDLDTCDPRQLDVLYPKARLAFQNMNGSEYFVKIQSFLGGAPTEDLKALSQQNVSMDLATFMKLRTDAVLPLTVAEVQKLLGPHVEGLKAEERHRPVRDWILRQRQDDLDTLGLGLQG

Row | Binder | competition rate
1 | B1 | 37%
2 | B2 | 31%
3 | B3 | 78%
4 | B4 | 33%
5 | B5 | 16%
6 | B6 | -22%

What follows are binders tested against T2, human MSLN-R3-3 polypeptide (human) (assay: ELISA, coated antigen; antibody 0.1 nM).
T2 construct: also called human MSLN-R3-3 protein; hMSLN-R3-3
Description: (§1) The plate was sealed with a plastic film and incubated at 4° C. overnight. The next day, the plate was washed twice with PBST, and a blocking buffer [PBS+2% (w/w) BSA] was added for blocking at room temperature for 2 h. The blocking buffer was discarded, and a chimeric antibody or negative control antibody serially diluted from 100 nM was added at 50 μL/well. After incubation at 37° C. for 2 h, the plate was washed 3 times with PBST. […] After incubation at 37° C. for 2 h, the plate was washed 5 times with PBST. A TMB substrate was added at 50 μL/well for incubation at room temperature for 5-10 min, and then a stop solution (1.0 N HCl) was added at 50 μL/well.

Row | Binder | OD450
7 | B7 | 0.07 OD450
8 | B8 | 0.08 OD450

These binders were tested against T3, human MSLN-R3-his protein (human, UniProt Q13421 487-598) (assay: ELISA, coated antigen; antibody 100 nM).
T3 construct: also called human MSLN-R3 protein; hMSLN-R3-his; not shown: His tag
T3 sequence (Q13421 495-606): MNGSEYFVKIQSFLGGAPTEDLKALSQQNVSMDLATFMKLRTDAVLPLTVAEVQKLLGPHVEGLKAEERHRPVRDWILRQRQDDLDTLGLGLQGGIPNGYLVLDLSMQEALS

Row | Binder | OD450
9 | B7 | 2.16 OD450
10 | B8 | 1.92 OD450

The binders below were run against T1, human MSLN-FL-his protein (assay: competitive ELISA; coated 2ug/ml F3.51.8).
Description: (§2) In order to identify antigen-binding sites of antibodies, MSLN chimeric antibodies were grouped using competitive ELISA.
(§3) The chimeric antibodies were diluted to 2 μg/mL with PBS and allowed to coat 96-well high-adsorption ELISA plates at 50 μL/well. After the plates were coated at 4° C. overnight, 250 μL of a blocking buffer (PBS containing 2% (w/w) BSA) was added for two hours of blocking at room temperature. 40 μg/mL of the antibodies to be tested were added, and then the human MSLN-FL-His protein with an EC₈₀ concentration corresponding to each of the antibodies to be tested was added for incubation for 2 h. The plates were washed 5 times with PBS, an HRP-labeled anti-His secondary antibody (purchased from Genescript, Cat. No. A00612) was then added for incubation for 1 h, and the plates were washed 5 times again. A TMB substrate was added at 50 μL/well, and after 10 minutes of incubation at room temperature, a stop solution (1.0 M HCl) was added at 50 μL/well. OD₄₅₀ nm values were read using an ELISA plate reader (Insight, purchased from PerkinElmer), and the competition rate between the antibodies was calculated according to the OD₄₅₀ nm values using a formula.

Row | Binder | competition rate
11 | B1 | 96%
12 | B2 | 94%
13 | B3 | 102%
14 | B4 | 96%
15 | B5 | 87%
16 | B6 | 43%

What follows are binders tested against T4, human MSLN-R2-his protein (human, UniProt Q13421 391-486) (assay: ELISA, coated antigen; antibody 10 nM).
T4 construct: also called human MSLN-R2 protein; hMSLN-R2-his; not shown: His tag
T4 sequence (Q13421 other isoform, or with tags, fused parts or gaps): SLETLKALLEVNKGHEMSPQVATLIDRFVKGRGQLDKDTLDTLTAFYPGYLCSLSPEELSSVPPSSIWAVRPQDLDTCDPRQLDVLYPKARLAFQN

Row | Binder | OD450
17 | B7 | 0.09 OD450
18 | B8 | 0.08 OD450

These binders were tested against T1, human MSLN-FL-his protein (assay: SPR (Biacore), antibody captured on Protein A chip;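 also: measured at 25 °C, analyte injected 240 s in five twofold dilutions from 200 nM, dissociation up to 600 s, double-referenced, fitted with Langmuir 1:1 model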).

Row | Binder | Kd | koff | kon
19 | B1 | 1.5 nM | 0.00083 s⁻¹ | 552000 M⁻¹ s⁻¹
20 | B2 | 689 nM | 0.000703 s⁻¹ | –
21 | B3 | 142 nM | 0.00035 s⁻¹ | 2470 M⁻¹ s⁻¹
22 | B4 | 4.92 nM | 5.04e-05 s⁻¹ | 10300 M⁻¹ s⁻¹
23 | B5 | 171 nM | 0.000433 s⁻¹ | 2530 M⁻¹ s⁻¹
24 | B6 | 151 nM | 0.000332 s⁻¹ | 2200 M⁻¹ s⁻¹

The binders below were run against T1, human MSLN-FL-his protein (assay: competitive ELISA; coated 2ug/ml F3.74.20).
Description: as §2, §3

Row | Binder | competition rate
25 | B1 | 96%
26 | B2 | 93%
27 | B3 | 101%
28 | B4 | 98%
29 | B5 | 91%
30 | B6 | -12%

What follows are binders tested against T2, human MSLN-R3-3 polypeptide (assay: ELISA, coated antigen; antibody 0.0001 nM).
Description: as §1

Row | Binder | OD450
31 | B7 | 0.07 OD450
32 | B8 | 0.07 OD450

These binders were tested against T2, human MSLN-R3-3 polypeptide (assay: ELISA, coated antigen; antibody 1 nM).
Description: as §1

Row | Binder | OD450
33 | B7 | 0.07 OD450
34 | B8 | 0.07 OD450

What follows are binders tested against T4, human MSLN-R2-his protein (assay: ELISA, coated antigen; antibody 0.01 nM).
Description: as §1

Row | Binder | OD450
35 | B7 | 0.06 OD450
36 | B8 | 0.06 OD450

These binders were tested against T4, human MSLN-R2-his protein (assay: ELISA, coated antigen; antibody 1 nM).
Description: as §1

Row | Binder | OD450
37 | B7 | 0.07 OD450
38 | B8 | 0.06 OD450

Each binder was assayed against T3, human MSLN-R3-his protein (assay: ELISA, coated antigen; antibody 0.1 nM).
Description: as §1

Row | Binder | OD450
39 | B7 | 1.13 OD450
40 | B8 | 1.61 OD450

These binders were tested against T2, human MSLN-R3-3 polypeptide (assay: ELISA, coated antigen; antibody 10 nM).
Description: as §1

Row | Binder | OD450
41 | B7 | 0.08 OD450
42 | B8 | 0.08 OD450

The binders below were run against T1, human MSLN-FL-his protein (assay: competitive ELISA; coated 2ug/ml Tab108 (R3)).
Description: as §2, §3

Row | Binder | competition rate
43 | B1 | 32%
44 | B2 | 35%
45 | B3 | 46%
46 | B4 | 34%
47 | B5 | -37%
48 | B6 | 35%

What follows are binders tested against T1, human MSLN-FL-his protein (assay: competitive ELISA; coated 2ug/ml F3.23.1).
Description: as §2, §3

Row | Binder | competition rate
49 | B1 | 99%
50 | B2 | 95%
51 | B3 | 101%
52 | B4 | 100%
53 | B5 | 88%
54 | B6 | -109%

What follows are binders tested against T2, human MSLN-R3-3 polypeptide (assay: ELISA, coated antigen; antibody 0.001 nM).
Description: as §1

Row | Binder | OD450
55 | B7 | 0.07 OD450
56 | B8 | 0.08 OD450

Each binder was assayed against T2, human MSLN-R3-3 polypeptide (assay: ELISA, coated antigen; antibody 0.01 nM).
Description: as §1

Row | Binder | OD450
57 | B7 | 0.07 OD450
58 | B8 | 0.07 OD450

These binders were tested against T2, human MSLN-R3-3 polypeptide (assay: ELISA, coated antigen; no antibody (blank, column 'none')).
Description: as §1

Row | Binder | OD450
59 | B7 | 0.08 OD450
60 | B8 | 0.08 OD450

These binders were tested against T1, human MSLN-FL-his protein (assay: competitive ELISA; coated 2ug/ml F3.80.22).
Description: as §2, §3

Row | Binder | competition rate
61 | B1 | -26%
62 | B2 | -36%
63 | B3 | -17%
64 | B4 | -15%
65 | B5 | -5%
66 | B6 | 63%

What follows are binders tested against T1, human MSLN-FL-his protein (assay: competitive ELISA; coated 2ug/ml F3.45.21).
Description: as §2, §3

Row | Binder | competition rate
67 | B1 | 92%
68 | B2 | 89%
69 | B3 | 98%
70 | B4 | 94%
71 | B5 | 84%
72 | B6 | -67%

Each binder was assayed against T4, human MSLN-R2-his protein (assay: ELISA, coated antigen; no antibody (blank, column 'none')).
Description: as §1

Row | Binder | OD450
73 | B7 | 0.08 OD450
74 | B8 | 0.08 OD450

What follows are binders tested against T4, human MSLN-R2-his protein (assay: ELISA, coated antigen; antibody 0.1 nM).
Description: as §1

Row | Binder | OD450
75 | B7 | 0.07 OD450
76 | B8 | 0.18 OD450

The binders below were run against T3, human MSLN-R3-his protein (assay: ELISA, coated antigen; antibody 0.001 nM).
Description: as §1

Row | Binder | OD450
77 | B7 | 0.11 OD450
78 | B8 | 0.15 OD450

The binders below were run against T3, human MSLN-R3-his protein (assay: ELISA, coated antigen; antibody 1 nM).
Description: as §1

Row | Binder | OD450
79 | B7 | 1.63 OD450
80 | B8 | 1.8 OD450

These binders were tested against T4, human MSLN-R2-his protein (assay: ELISA, coated antigen; antibody 100 nM).
Description: as §1

Row | Binder | OD450
81 | B7 | 0.12 OD450
82 | B8 | 0.12 OD450

The binders below were run against T3, human MSLN-R3-his protein (assay: ELISA, coated antigen; antibody 10 nM).
Description: as §1

Row | Binder | OD450
83 | B7 | 1.74 OD450
84 | B8 | 1.91 OD450

Each binder was assayed against T1, human MSLN-FL-his protein (assay: competitive ELISA; coated 2ug/ml Tab142 (R1)).
Description: as §2, §3

Row | Binder | competition rate
85 | B1 | -38%
86 | B2 | -25%
87 | B3 | -34%
88 | B4 | -28%
89 | B5 | -27%
90 | B6 | 81%

What follows are binders tested against T4, human MSLN-R2-his protein (assay: ELISA, coated antigen; antibody 0.0001 nM).
Description: as §1

Row | Binder | OD450
91 | B7 | 0.07 OD450
92 | B8 | 0.06 OD450

What follows are binders tested against T3, human MSLN-R3-his protein (assay: ELISA, coated antigen; antibody 0.01 nM).
Description: as §1

Row | Binder | OD450
93 | B7 | 0.43 OD450
94 | B8 | 0.65 OD450

Each binder was assayed against T3, human MSLN-R3-his protein (assay: ELISA, coated antigen; antibody 0.0001 nM).
Description: as §1

Row | Binder | OD450
95 | B7 | 0.07 OD450
96 | B8 | 0.08 OD450

Each binder was assayed against T2, human MSLN-R3-3 polypeptide (assay: ELISA, coated antigen; antibody 100 nM).
Description: as §1

Row | Binder | OD450
97 | B7 | 0.11 OD450
98 | B8 | 0.11 OD450

What follows are binders tested against T4, human MSLN-R2-his protein (assay: ELISA, coated antigen; antibody 0.001 nM).
Description: as §1

Row | Binder | OD450
99 | B7 | 0.07 OD450
100 | B8 | 0.06 OD450

These binders were tested against T3, human MSLN-R3-his protein (assay: ELISA, coated antigen; no antibody (blank, column 'none')).
Description: as §1

Row | Binder | OD450
101 | B7 | 0.08 OD450
102 | B8 | 0.09 OD450
